The data set in a line: label from the status in PepcDB records.
Consider “NSDLGGTLQFTSSNPDKAFGARLSQTLGSYDTSRTFMRVDTGEYNGLSAYVSGEKYDADAWKGHNNPQKSDAVNAKINYNFGDNRVSFFHSTSSHDEANLPSLSPSIIQRLGYNWSYYTPDWTRAVNAANGIYTGGVTSAGDATYNASSLRDDELDILNGNFSLTDDLVLDATVYHHHDSGRGNSYYPFVYTSGATTVPSNAIRSTVYGIDRTGFQSSLTYFLGQHEIQAGFWIQSNKNDIARYLFDTTNATPQNHIVKTNGLPLAATVLDQSYNDLTRQFYLRDTYTLLDDRLKLEFGAKNTVTTSTAKGKGGGYASGSLEARDRFLPQVGATYKLNDSDEVFTSYSENMAAFPSGGYSPFFTTQTAVDAQNGFKDLKPETSKTVELGLRRSTKLYSASAAVYNTRFDNRLVAITNCTGIVICQNGVANVGSVTSRGLELSLGLTPNENWRWSNSMSYNHSTYDDDYASGGSTVQVKGKTVVDTPKLMYSSSLDWNWEHWNAGLQGNYISKRYYTYTNDSSVSGYWLANANLGYDCGKLGALKDTTVSLNMVNLFDKRYISTLNTDASAAADPSGNLQILQVGTPRSAFVTLGVKL”, for which the protein production entry is on record as “failed”. Under “MEKDDATASFSPSFSTYSGDRLVEIAERVCYKEKSDAEFEFSTAATSSSGDGGLVFPVFNKNLISGDVSPEKVIPLKDLFLRERNDQQPPQQTYSSSSDEEEEDDEFDSIPSEIYCPWTPARSTADMSPSGGCRKSKSTGSSSTSTWSTKRWRLRDFLKRSKSDGKQSLKFLNPTNRDDDDESSKSKKKVSVSVTVSAHEKFYLRNKAIKEEDKRKSYLPYKQDLVGLFSNIHRYGKTFPPF” stands “failed”; under “MVPEFIILGAAILLSICDLFFKLNHRYVALGAIAAIVLAIVSLITLYSEPAGDILNGSFVLDGFSKGFKTLLLGASALILCTAMSDDKKNPIEDKGEYYYLFLMALLGAMFMASSVDFITLFVGLELLSLSSYILVGIRKKSRASNEAAMKYVISGGIGTAITLFGMSYLYGITGSTNIVDMQKVLTGELASGIQLLLALAFLLLLVGLSFKIATVPFHMWAPDVYEGAATPVTAFLGTISKIAGFLLIIRLFLMIFASVLIQGDMQSLYGHMSIYIAVLASITMIVGNVVALKQYNIKRLFAYSGIAHAGYLLVPLVALSPFTMDSMWFYMLAYMLMNIGAFAIIHGLILQNNEENITIFTGLYKRSPFTAIMMTIFILSLAGIPGTAGFIGKINIFLGALHVEPAHYVLASIMMGTTVVSFVYYFRILQQMFFRTGETEERIRLPLNIKVVMSLCAISIVILGIMPMIGYNFFYEYFPLMKDFFFLGNVVQ”, “not failed”.

Regarding “HPQYIVFCDFDETYFPHTIDEQKQQDIYELEDYLEQKSKDGELIIGWVTGSSIESILDKMGRGKFRYFPHFIASDLGTEITYFSEHNFGQQDNKWNSRINEGFSKEKVEKLVKQLHENHNILLNPQTQLGKSRYKHNFYYQEQDEINDKKNLLAIEKICEEYGVSVNINRCNPLAGDPEDSYDVDFIPIGTGKNEIVTFMLEKYNLNTERAIAFGDSGNDVRMLQTVGNGYLLKNATQEAKNLHNLITDSEYSKGITNTLKKLIGFMRR”, the protein production result is reported as “failed”. For “MGDMIFGILTWLPGLILAITLHEAAHGYVASALGDQTARLLGRVTLNPIRHVDPFGTLVLPGLLFLVGAPFLFGWAKPVPVDYRNLRHPKRDMAWVALAGPGMNIFLAVVSAAALHGALLLPDPAADWLITTLQKSVLINCVLAVFNMIPVPPLDGGRVLVGILPMRAAVVVARMERVGMLALIGVIFLLPLALSQFGVDFDPFSRIIGPVVRALLGAVYTTAGIPLF”, the protein production result is listed as “failed”. Under “MAMSLSGAVLSGMGSSFHNVGAKQSGVGTVRVGRKSELVVVAQRKKSLIYAVKSDGNILDDLNEATKKASDFVTDKTKEALADGEKTKDYIVEKTIEANETATEEAKKALDYVTEKGKEAGNKAAEFVEGKAEEAKNATKS” stands “failed”; under “MAKAGGITNAVNVGIAVQADWENREFISHISLNVRRLFEFLVQFGKPHSLTYFSVLGFEFN”, “failed”. For “MKEFVHDYLAASVENEEEGGRMRWYPWHSAEYRFNHILNVVDIATKIARKEGANVDVTRVAALFHDIAKLEAEQDLHAEAGARIAREYLRAHGDYPESFIEQVCSAVEVHSYQGSLDDLPLEVQCLIEADILDKVGANGTALMLLRMGYESRTHMDAAEMVDRVIERGEDARERVQSDTAESLVHQRLKRTRWFQEWLTMEVAEMAVEDDLDDVATGMGDSLEHHHHHH”, the protein production result is listed as “not failed”.

For the sequence “MKITLIIPTYNAGSIWPNVLDAIKQQTIYPDKLIVIDSGSKDETVLLASDLKNISIFNIDSKDFNHGGTRNLAVTKTLDADVIIFLTQDAILADSDAIKNLVYYFSDPLIAAVCGRQLPHKDANPLAVHARNFNYSSKSIVKSKADIEKFGIKTVFMSNSFAAYRRSVFEELSGFPEHTILAEDMFMAAKMIQAGYKVAYCAEAVVRHSHNYTPREEFQRYFDTGVFHACSPWIQRDLGGAGGEGFRFVKSEIQFLLKNAPFWIPRALLTTFAKFLGYKLGKHWQSLPLSTCRYFSMYKSYWNNIQYSSSKEIKLEHHHHHH”, the protein production entry is listed as “failed”. With “MENETGGKDREVVEAVTNSEPGNGDGFAKKGDSYDDKLPSENVDKHMENEANEKEKEEDGAADELCALQDALETTLFQHLSNYAQKQMLQKLRSLRAKERKELSGEWKSLLAQEALLKSKKYSFSAELANATFHTWEEETRRMVL” the entry was “not failed”; with “MFASLVIPVSAQANSGEMPQEQQLAVKYMDALTEHDYKTLITFYNRDSIFFDKTANRKYTGGRFIIDFLERAHQGVLEYDFNIEHMYNAGSLVVMIGNYHFKGPGEQFGKPGKIIDVAIPAVTSLKLDMLNRRVTEHVDLIDYQTMSDQLAMQ”, “not failed”; with “MSTVNNHRVVIRRRKVRRGGHHGGSWKIAYADFITAMMAFFLVMWLISIVPREELKGIAEYFRMPLRVALTGGPSSSAETSAIPGGGQDPLRSQGDVRRAEGNRVEAQPMGDAERRDRHRLERLKVRLENLIEESPVLKNFRPQLLIDMTTEGLRIQIVDNQNRPMFATGSADVQPYMRDILRELGPVLNDLPNKISIAGHTDASQYARGERAYSNWELSADRANASRQELVAGGMHEGKVLRIQGLASSMSLVKDDPFAAVNRRISLVVLNASTQRRIENENAAAADVNARDAQGVGAALAGQLAASGSDGGAR”, “failed”.

Take “MRNNLSAYSNIETGEAATELECFPYSVQHNDEGVCLLVRMGPHRILLDCGLADISSIQKSLTPSVKRGNPPSPADLVLVTHAHPDHARGLLALHQAFPNLPIYGSEVTSKLLPLNWLDHNPQEIPQLCHALPLRSPVELQDGLVAEIFPCGHLPGAVAILLTYTTEQRSYKLLYTGDFFLSNSRLVEGLRLEELRGIDLNVLIIEGTYGTSRHPHRRNQENQLAERINRAISDRYSVVLPTPALGLGQELLMLLRSHHHFTGRDLDIWVDGAVAIGCDAYLELLPHLPASVQNFARHQPLFWDERVRPRVRRLQAENRSIVGKSPCIVLTDSTSDLEQYCQPETGPWLILLPEKIDIKVNKKYSAPTTVESYLLAQHSDGPGTTQLIHNLRPQHVVFVHGSPAYLADLTCLEELQNRYHIHSPAAETMVELLIGETFLQPAPPETNYEGELTELGTVITISIPEAITADPRWRQFADTGLIEARWQGEELVLRGLTQRELLNQNSDRNIPPEIDCCGTCRHQRGQRCWNPSSPLYNFRVTLEGHCPAFERLSNGE”: the protein production entry is on record as “failed”.

Regarding “MRETFEIGEIVTGIYKTGKYIGEVTNSRPGSYVVKVLAVLKHPVQGDLHNVKQANVPFFHERRALAFREQTNIPEQMVKKYEGEIPDYTESLKLALETQMNSFSEDDSPFAERSLETLQQLKKDYKL”, the protein production entry is “not failed”.

For the sequence “MNNSETPAPGPDSLLALAFPSDPQVSPDGKQVAFVLAQISEEDPAKPDKDFARPRYRSGLWLSEGGAARPLTHAETGRGDSAPRWSPDGQNLAFVRSAGEVKAALMLLPLKGGEARRVTHFKNGVSGPQWSPDGRFIAFTTTADTEDKRDERGEARVLTRPVYRANGADWLPERPAALWLYDVEADKLREWYAPEIGIGALSWWPDSRGVLIVQSEDEWQASQWRQDVYDLPLPTADAPAAPQKLLDWNSAAHGLAPHPDGQRFALIGRPAGKGNTEHAHLYLIENGQHRRLDTGHDHPVGDAVGGDCHVGAFPEGPRWLDGDTLLFSSTVRGSVGLFTAHIGGGVKAYDHDPQGVISAFTANEHGVALIRESATRFPEVELNGQRVTDLHARFPFPVREPQRVTFETELGEGEGWVLLPEGEQKVPALLNIHGGPHTDYGHGFTHEFQLMAARGYGVCYSNPRGSVGYGQAWVDAIYGRWGTVDADDLLNFFDRCLEAVPRLDAAKTAVMGGSYGGFMTNWITGHTTRFQAAITDRCISNLISFGGTSDIGLRFWDDELGLDFSRRADALKLWDLSPLQYVENVKTPTLIVHSVLDHRCPVEQAEQWYAALHKHQVPVRFVRFPEENHELSRSGRPDRRLTRLNEYFAWLERWL”, the protein production result is on record as “failed”.

With “MTKEKSTVPRLRFPGFTDAWKQRKLGEVADFSIKTNSLSRDKLSSYFYEVQNIHYGDILTKYDAILDVCNKELPSIIGSTISDFADALLSEGDIVFADAAEDSTVGKAIEVRNFKGKNVVSGLHTIVARPKVSYAPYYLGYLINSTAYHNQILPLMQGTKVSSISKANLKSTTVVFPTLPEQEAIGSFFSDLDQLITLHQRKLDDVKELKKALLQKMFPKGNGNDFPELRFPEFTDAWKQRKLGEFMKESKILGSKGDIARKLTVRLWGRGVVSKKEIYSGSSATQYYIRKSGQFIYGKLDFLNQAFGIIPPELDGYESTLDSPAFDLLKGINGQFLLEFVSRKEFYYYQGNIANGSRKAKRIHTETFLGMPISLPTLPEQEAIGSFFSDLDQLITLHQRK”, the protein production entry is listed as “failed”. With “MAYATGITFASRSILPICSRTFLSPLRVASLLVFPEKSSATFFRRVQVPHLFSTSTTTLFSSVKCSIHSTSSPETENQAVFRPNVVDILEERGLLESITSENLRSACSDPKVAPLRVYCGFDPTAESLHLGNLLGIIVLSWFQRCGHQAVGLIGGATGRVGDPSGKSLERPELDADTLEKNIAGITKIIIKILGSNPSPGGSYVIFNNYDWWKDMTMLDFLNKVGRFARVGTMMAKESVKKRLESEQGMSYTEFTYQLLQAYDFLHLFKNEGINVQIGGSDQWGNITAGTDLIRKILQAEEAAYGLTFPLLLKNDGTKFGKSEDGAIWLSPSMLSPYKFYQYFFSVPDVDVIRFLKTLTFLSLDEIKILEDQMSKPGYVPNTAQIKLAEEVTRFVHGEEGLKEAIKATEALRPGAETKLDWNLIERIAEDIPSCSLPIDRVSGLSIVDLSVSAGLFESKSAARRMLKQGGFYMNNERVDDENKRVDEEDIVEGRGLVLSAGKKNKVVVRIS” the entry was “failed”. With “MKKSINEQKTIFIILLSNIFVAFLGIGLIIPVMPSFMKIMHLSGSTMGYLVAAFAISQLITSPFAGRWVDRFGRKKMIILGLLIFSLSELIFGLGTHVSIFYFSRILGGVSAAFIMPAVTAYVADITTLKERSKAMGYVSAAISTGFIIGPGAGGFIAGFGIRMPFFFASAIALIAAVTSVFILKESLSIEERHQLSSHTKESNFIKDLKRSIHPVYFIAFIIVFVMAFGLSAYETVFSLFSDHKFGFTPKDIAAIITISSIVAVVIQVLLFGKLVNKLGEKRMIQLCLITGAILAFVSTVMSGFLTVLLVTCFIFLAFDLLRPALTAHLSNMAGNQQGFVAGMNSTYTSLGNIFGPALGGILFDLNIHYPFLFAGFVMIVGLGLTMVWKEKKNDAAALN” the entry was “failed”. Under “MDALTVGELRRRVHALVLGKRQRVYSGAMFLVEVVHHPELSAMLGLEDNKLLLAMIAQRLQMQSDYFQVARHSSDSFMVWAPDLDPRSARDVAPEVLDALSQPYELRGQPLIVGFRLSGALYAQHGACFDELERSLHIAMLHLDESAGAAWNMFEPSMLEHQRHYQGLEHHHHHH” stands “not failed”.

(Values after a protein production outcome set (Wang et al. 2014).)
